Starred links: 1 amine or outer side, 2 acyl side, 3 side chain; linkers in the order of their positions; H or OH if unused. Non-standard residues stand in square brackets, D forms with d. Groups on a side chain read outwards from the residue. No end group written: not given here. *: point of attachment. γGlu = O=C(O)[C@H](CCC(=O)[*:2])N[*:1]; Palmitoyl = CCCCCCCCCCCCCCCC(=O)*; αMeF = C[C@](N)(Cc1ccccc1)C(=O)O; αMeK = C[C@](N)(CCCCN)C(=O)O; αMeS = C[C@](N)(CO)C(=O)O; Aib = CC(C)(N)C(=O)O
T1: glucose-dependent insulinotropic peptide (gastric inhibitory polypeptide) receptor (GIPR) (human, UniProt P48546 22-466)
T1 sequence (looked up): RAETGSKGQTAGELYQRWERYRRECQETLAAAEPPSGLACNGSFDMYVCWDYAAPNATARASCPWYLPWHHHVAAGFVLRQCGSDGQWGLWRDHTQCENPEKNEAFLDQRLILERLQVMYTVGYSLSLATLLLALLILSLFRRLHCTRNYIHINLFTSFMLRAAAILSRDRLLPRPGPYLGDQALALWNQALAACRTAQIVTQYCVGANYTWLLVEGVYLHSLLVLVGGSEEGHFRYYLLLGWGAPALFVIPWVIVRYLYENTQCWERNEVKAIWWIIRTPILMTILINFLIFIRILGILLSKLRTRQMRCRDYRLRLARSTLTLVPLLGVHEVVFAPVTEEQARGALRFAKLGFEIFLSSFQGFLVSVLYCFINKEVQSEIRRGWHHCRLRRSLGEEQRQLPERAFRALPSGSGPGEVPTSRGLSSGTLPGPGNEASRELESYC


Columns and labels:
Experiment in all cases: cell-based or functional assay
GLP-1 receptor (GLP-1R) = GLP-1 receptor (GLP-1R) (human, UniProt P43220 24-463)
glucagon receptor (GCGR) = glucagon receptor (GCGR) (human, UniProt P47871 26-477)
[1] = target: T1, glucose-dependent insulinotropic …

Chain of glucagon receptor (GCGR) (P47871 26-477): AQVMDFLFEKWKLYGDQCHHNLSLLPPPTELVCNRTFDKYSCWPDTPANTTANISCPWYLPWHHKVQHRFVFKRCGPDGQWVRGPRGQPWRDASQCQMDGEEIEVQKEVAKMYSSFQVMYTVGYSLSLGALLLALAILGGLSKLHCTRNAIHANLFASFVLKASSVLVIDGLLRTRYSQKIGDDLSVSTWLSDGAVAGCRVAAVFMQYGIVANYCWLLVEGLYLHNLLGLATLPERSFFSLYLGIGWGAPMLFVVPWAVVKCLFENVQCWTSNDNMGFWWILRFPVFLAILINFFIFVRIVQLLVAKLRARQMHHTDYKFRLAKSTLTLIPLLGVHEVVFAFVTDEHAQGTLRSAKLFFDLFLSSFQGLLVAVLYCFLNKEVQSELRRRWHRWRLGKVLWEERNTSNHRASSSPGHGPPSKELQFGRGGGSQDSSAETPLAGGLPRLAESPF

cAMP Mean pM GLP-1R (GLP-1 receptor (GLP-1R)) [pM]	cAMP Primary assay EC50 GLP-1R n1 (GLP-1 receptor (GLP-1R)) [nM]	cAMP Primary assay EC50 GLP-1R n2 (GLP-1 receptor (GLP-1R)) [nM]	cAMP Primary assay EC50 Gluc-R (glucagon receptor (GCGR)) [nM]	cAMP Primary assay EC50 Gluc-R (2nd) (glucagon receptor (GCGR)) [nM]	cAMP Primary assay EC50 GIP-R [1] [nM]	cAMP Primary assay EC50 GIP-R (2nd) [1] [nM]	Binder
548	0.45	0.65	28	28	28	28	H[Aib]EGS[αMeF]TSDVK([γGlu-Palmitoyl])S[αMeF]LEGEAA[αMeK]E[αMeF]IA[αMeF]VV[αMeK]GG-NH2 (N-terminus assumed; SMILES CCCCCCCCCCCCCCCC(=O)N[C@@H](CCC(=O)NCCCC[C@H](NC(=O)[C@@H](NC(=O)[C@H](CC(=O)O)NC(=O)[C@H](CO)NC(=O)[C@@H](NC(=O)[C@](C)(Cc1ccccc1)NC(=O)[C@H](CO)NC(=O)CNC(=O)[C@H](CCC(=O)O)NC(=O)C(C)(C)NC(=O)[C@@H](N)Cc1c[nH]cn1)[C@@H](C)O)C(C)C)C(=O)N[C@@H](CO)C(=O)N[C@@](C)(Cc1ccccc1)C(=O)N[C@@H](CC(C)C)C(=O)N[C@@H](CCC(=O)O)C(=O)NCC(=O)N[C@@H](CCC(=O)O)C(=O)N[C@@H](C)C(=O)N[C@@H](C)C(=O)N[C@@](C)(CCCCN)C(=O)N[C@@H](CCC(=O)O)C(=O)N[C@@](C)(Cc1ccccc1)C(=O)N[C@H](C(=O)N[C@@H](C)C(=O)N[C@@](C)(Cc1ccccc1)C(=O)N[C@H](C(=O)N[C@H](C(=O)N[C@@](C)(CCCCN)C(=O)NCC(=O)NCC(N)=O)C(C)C)C(C)C)[C@@H](C)CC)C(=O)O) [SEQ ID NO 89]
5	0.0043	0.0057	28	28	28	28	HXEGSFTSDVSKFLEGEAAKEFIAFVVKGG (Aib 2; α-MeF 6, 13, 22, 25; α-MeS 11; α-MeK 20, 28; K(ε-γE-Palmitoyl) 12; C-terminal amide) [SEQ ID NO 88]
101	0.066	0.14	28	28	28	28	H[Aib]EGS[αMeF]TSDV[αMeS]S[αMeF]LK([γGlu-Palmitoyl])GEAA[αMeK]E[αMeF]IA[αMeF]VV[αMeK]GG-NH2 (N-terminus assumed; SMILES CCCCCCCCCCCCCCCC(=O)N[C@@H](CCC(=O)NCCCC[C@H](NC(=O)[C@H](CC(C)C)NC(=O)[C@](C)(Cc1ccccc1)NC(=O)[C@H](CO)NC(=O)[C@](C)(CO)NC(=O)[C@@H](NC(=O)[C@H](CC(=O)O)NC(=O)[C@H](CO)NC(=O)[C@@H](NC(=O)[C@](C)(Cc1ccccc1)NC(=O)[C@H](CO)NC(=O)CNC(=O)[C@H](CCC(=O)O)NC(=O)C(C)(C)NC(=O)[C@@H](N)Cc1c[nH]cn1)[C@@H](C)O)C(C)C)C(=O)NCC(=O)N[C@@H](CCC(=O)O)C(=O)N[C@@H](C)C(=O)N[C@@H](C)C(=O)N[C@@](C)(CCCCN)C(=O)N[C@@H](CCC(=O)O)C(=O)N[C@@](C)(Cc1ccccc1)C(=O)N[C@H](C(=O)N[C@@H](C)C(=O)N[C@@](C)(Cc1ccccc1)C(=O)N[C@H](C(=O)N[C@H](C(=O)N[C@@](C)(CCCCN)C(=O)NCC(=O)NCC(N)=O)C(C)C)C(C)C)[C@@H](C)CC)C(=O)O) [SEQ ID NO 85]
3.6	0.0032	0.004	28	28	28	28	H[Aib]EGS[αMeF]TSDV[αMeS]S[αMeF]LEGK([γGlu-Palmitoyl])AA[αMeK]E[αMeF]IA[αMeF]VV[αMeK]GG-NH2 (N-terminus assumed; SMILES CCCCCCCCCCCCCCCC(=O)N[C@@H](CCC(=O)NCCCC[C@H](NC(=O)CNC(=O)[C@H](CCC(=O)O)NC(=O)[C@H](CC(C)C)NC(=O)[C@](C)(Cc1ccccc1)NC(=O)[C@H](CO)NC(=O)[C@](C)(CO)NC(=O)[C@@H](NC(=O)[C@H](CC(=O)O)NC(=O)[C@H](CO)NC(=O)[C@@H](NC(=O)[C@](C)(Cc1ccccc1)NC(=O)[C@H](CO)NC(=O)CNC(=O)[C@H](CCC(=O)O)NC(=O)C(C)(C)NC(=O)[C@@H](N)Cc1c[nH]cn1)[C@@H](C)O)C(C)C)C(=O)N[C@@H](C)C(=O)N[C@@H](C)C(=O)N[C@@](C)(CCCCN)C(=O)N[C@@H](CCC(=O)O)C(=O)N[C@@](C)(Cc1ccccc1)C(=O)N[C@H](C(=O)N[C@@H](C)C(=O)N[C@@](C)(Cc1ccccc1)C(=O)N[C@H](C(=O)N[C@H](C(=O)N[C@@](C)(CCCCN)C(=O)NCC(=O)NCC(N)=O)C(C)C)C(C)C)[C@@H](C)CC)C(=O)O) [SEQ ID NO 83]
1.5	0.0013	0.0017	28	28	28	28	H[Aib]EGS[αMeF]TSDV[αMeS]S[αMeF]K([γGlu-Palmitoyl])EGEAA[αMeK]E[αMeF]IA[αMeF]VV[αMeK]GG-NH2 (N-terminus assumed; SMILES CCCCCCCCCCCCCCCC(=O)N[C@@H](CCC(=O)NCCCC[C@H](NC(=O)[C@](C)(Cc1ccccc1)NC(=O)[C@H](CO)NC(=O)[C@](C)(CO)NC(=O)[C@@H](NC(=O)[C@H](CC(=O)O)NC(=O)[C@H](CO)NC(=O)[C@@H](NC(=O)[C@](C)(Cc1ccccc1)NC(=O)[C@H](CO)NC(=O)CNC(=O)[C@H](CCC(=O)O)NC(=O)C(C)(C)NC(=O)[C@@H](N)Cc1c[nH]cn1)[C@@H](C)O)C(C)C)C(=O)N[C@@H](CCC(=O)O)C(=O)NCC(=O)N[C@@H](CCC(=O)O)C(=O)N[C@@H](C)C(=O)N[C@@H](C)C(=O)N[C@@](C)(CCCCN)C(=O)N[C@@H](CCC(=O)O)C(=O)N[C@@](C)(Cc1ccccc1)C(=O)N[C@H](C(=O)N[C@@H](C)C(=O)N[C@@](C)(Cc1ccccc1)C(=O)N[C@H](C(=O)N[C@H](C(=O)N[C@@](C)(CCCCN)C(=O)NCC(=O)NCC(N)=O)C(C)C)C(C)C)[C@@H](C)CC)C(=O)O) [SEQ ID NO 86]
1.6	0.0016	0.0016	28	28	28	28	H[Aib]EGS[αMeF]TSDV[αMeS]SK([γGlu-Palmitoyl])LEGEAA[αMeK]E[αMeF]IA[αMeF]VV[αMeK]GG-NH2 (N-terminus assumed; SMILES CCCCCCCCCCCCCCCC(=O)N[C@@H](CCC(=O)NCCCC[C@H](NC(=O)[C@H](CO)NC(=O)[C@](C)(CO)NC(=O)[C@@H](NC(=O)[C@H](CC(=O)O)NC(=O)[C@H](CO)NC(=O)[C@@H](NC(=O)[C@](C)(Cc1ccccc1)NC(=O)[C@H](CO)NC(=O)CNC(=O)[C@H](CCC(=O)O)NC(=O)C(C)(C)NC(=O)[C@@H](N)Cc1c[nH]cn1)[C@@H](C)O)C(C)C)C(=O)N[C@@H](CC(C)C)C(=O)N[C@@H](CCC(=O)O)C(=O)NCC(=O)N[C@@H](CCC(=O)O)C(=O)N[C@@H](C)C(=O)N[C@@H](C)C(=O)N[C@@](C)(CCCCN)C(=O)N[C@@H](CCC(=O)O)C(=O)N[C@@](C)(Cc1ccccc1)C(=O)N[C@H](C(=O)N[C@@H](C)C(=O)N[C@@](C)(Cc1ccccc1)C(=O)N[C@H](C(=O)N[C@H](C(=O)N[C@@](C)(CCCCN)C(=O)NCC(=O)NCC(N)=O)C(C)C)C(C)C)[C@@H](C)CC)C(=O)O) [SEQ ID NO 87]
8	0.0078	0.0081	27	27	27	27	H[Aib]EGS[αMeF]TSDV[αMeS]S[αMeF]LEK([γGlu-Palmitoyl])EAA[αMeK]E[αMeF]IA[αMeF]VV[αMeK]GG-NH2 (N-terminus assumed; SMILES CCCCCCCCCCCCCCCC(=O)N[C@@H](CCC(=O)NCCCC[C@H](NC(=O)[C@H](CCC(=O)O)NC(=O)[C@H](CC(C)C)NC(=O)[C@](C)(Cc1ccccc1)NC(=O)[C@H](CO)NC(=O)[C@](C)(CO)NC(=O)[C@@H](NC(=O)[C@H](CC(=O)O)NC(=O)[C@H](CO)NC(=O)[C@@H](NC(=O)[C@](C)(Cc1ccccc1)NC(=O)[C@H](CO)NC(=O)CNC(=O)[C@H](CCC(=O)O)NC(=O)C(C)(C)NC(=O)[C@@H](N)Cc1c[nH]cn1)[C@@H](C)O)C(C)C)C(=O)N[C@@H](CCC(=O)O)C(=O)N[C@@H](C)C(=O)N[C@@H](C)C(=O)N[C@@](C)(CCCCN)C(=O)N[C@@H](CCC(=O)O)C(=O)N[C@@](C)(Cc1ccccc1)C(=O)N[C@H](C(=O)N[C@@H](C)C(=O)N[C@@](C)(Cc1ccccc1)C(=O)N[C@H](C(=O)N[C@H](C(=O)N[C@@](C)(CCCCN)C(=O)NCC(=O)NCC(N)=O)C(C)C)C(C)C)[C@@H](C)CC)C(=O)O) [SEQ ID NO 84]
